In publication PMC6398391 (The FEBS journal, 2018):

Target: c-MYC:MAX bHLHZip heterodimer (MYC 352-437, MAX 22-102) (human, UniProt P01106-1 352-437; P61244 22-102)
Assay: NMR titration; unlabeled MYC:MAX dimer titrated into 15N-labeled INI1 RPT1 (147 uM); 1H,15N HSQC; fast exchange; shifts fitted to a single-site binding curve; 25 °C
Details: both partners purified

c-MYC:MAX bHLHZip heterodimer (MYC 352-437, MAX 22-102), sequence (P01106 367-452, chain 1 of 2): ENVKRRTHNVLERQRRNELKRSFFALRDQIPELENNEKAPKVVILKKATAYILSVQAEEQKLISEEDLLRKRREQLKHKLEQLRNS
c-MYC:MAX bHLHZip heterodimer (MYC 352-437, MAX 22-102), sequence (P61244 22-102, chain 2 of 2): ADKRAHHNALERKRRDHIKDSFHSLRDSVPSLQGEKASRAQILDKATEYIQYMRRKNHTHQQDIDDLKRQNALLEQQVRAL

B1: INI1/hSNF5 RPT1 (residues 184-258) (domain or fragment, human, UniProt Q12824 184-258, looked up)
chain: EVLVPIRLDMEIDGQKLRDAFTWNMNEKLMTPEMFSEILCDDLDLNPLTFVPAIASAIRQQIESYPTDSILEDQS
Kd: 44 ± 6 µM
